In the supplement of paper PMC7125110:
± gives the standard error. For part of these data: Variants at the floor of the assay were thinned out.

B1: glmS ribozyme (parent)
chain: AUAAAAGCGCCAGAACUACAGAAAUGUAGUUGACGAGGAGGAGGUUUAUCGAAUUUUCGGCGGAUGCCUCCAAA

Assays:
Conditions in all cases: with glucosamine-6-phosphate
glucosamine-6-phosphate [1] = variants of: B1; experiment: kcat; higher = faster cleavage; RNA array
Outline: (§1)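 Tiles bearing barcoded ribozyme variants, transcribed in situ by E. coli RNA polymerase on sequenced MiSeq chips, were imaged over ~14 h at 37 °C using a hybridised Cy3 probe. Glucosamine-6-phosphate was supplied at 40 μM to 10 mM in HEPES/KCl/Mg(OAc)2 buffer. kobs came from one- or two-exponential decay fits to normalised per-tile medians, and weighted Michaelis–Menten fits then provided kcat and KM.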

glucosamine-6-phosphate [2] = variants of: B1; experiment: self-cleavage kobs at 640 uM GlcN6P; higher = faster cleavage; RNA array
Outline: as §1

glucosamine-6-phosphate [3] = variants of: B1; experiment: self-cleavage kobs at 2500 uM GlcN6P; higher = faster cleavage; RNA array
Outline: as §1

glucosamine-6-phosphate [4] = variants of: B1; experiment: self-cleavage kobs at 10000 uM GlcN6P; higher = faster cleavage; RNA array
Outline: as §1

glucosamine-6-phosphate [5] = variants of: B1; experiment: KM; higher = weaker cofactor use; RNA array
Outline: as §1

glucosamine-6-phosphate [6] = variants of: B1; experiment: self-cleavage kobs at 40 uM GlcN6P; higher = faster cleavage; RNA array
Outline: as §1

glucosamine-6-phosphate [7] = variants of: B1; experiment: self-cleavage kobs at 160 uM GlcN6P; higher = faster cleavage; RNA array
Outline: as §1

Variant | kcat (glucosamine-6-phosphate [1]) [s⁻¹] | self-cleavage kobs at 640 uM GlcN6P (glucosamine-6-phosphate [2]) [s⁻¹] | self-cleavage kobs at 2500 uM GlcN6P (glucosamine-6-phosphate [3]) [s⁻¹] | self-cleavage kobs at 10000 uM GlcN6P (glucosamine-6-phosphate [4]) [s⁻¹] | KM (glucosamine-6-phosphate [5]) [µM] | self-cleavage kobs at 40 uM GlcN6P (glucosamine-6-phosphate [6]) [s⁻¹] | self-cleavage kobs at 160 uM GlcN6P (glucosamine-6-phosphate [7]) [s⁻¹]
U49G U56A | 0.000478 ± 0.00021 | 0.000105 ± 1.9e-05 | 0.000173 ± 4.1e-05 | 0.000466 ± 9.5e-05 |  |  | 
C11A U30A U45G | 2.81e-05 ± 1.1e-06 |  |  |  | 3690 ± 410 |  | 
A15G G66U | 0.00552 ± 0.0016 | 0.000492 ± 9.7e-05 | 0.00161 ± 0.00029 | 0.00374 ± 0.00049 | 5370 ± 2200 | 6.81e-05 ± 1.4e-05 | 0.000169 ± 3.6e-05
C67U C68U | 0.000115 ± 7.3e-06 | 7.85e-05 ± 9.1e-06 | 0.000124 ± 1.3e-05 | 0.000107 ± 7.4e-06 | 293 ± 85 |  | 3.97e-05 ± 8.6e-06
U45A | 0.0731 ± 0.026 | 0.0167 ± 0.00063 | 0.0529 ± 0.0042 | 0.0751 ± 0.0041 | 1680 ± 700 | 0.00192 ± 4e-05 | 0.00532 ± 0.00022
G40U U49G C71G | 0.000114 ± 2.6e-05 |  | 8.01e-05 ± 2.8e-05 | 9.53e-05 ± 1.8e-05 |  |  | 
C50U U54A C70U | 3.48e-05 ± 1e-05 | 6e-05 ± 2.4e-05 | 2.99e-05 ± 1.5e-05 |  |  |  | 
G66C C70A | 8.82e-05 ± 1.9e-05 | 4.17e-05 ± 1.3e-05 | 6.82e-05 ± 1.2e-05 | 9e-05 ± 1.4e-05 |  |  | 8.3e-05 ± 3e-05
A52G C67G | 0.000104 ± 6.8e-06 | 0.000107 ± 1e-05 | 0.000123 ± 1.6e-05 | 9.62e-05 ± 8.6e-06 | 22.4 ± 10 | 6.74e-05 ± 9e-06 | 7.15e-05 ± 2.3e-05
A52G C67U | 0.000905 ± 0.00016 | 0.000166 ± 2.3e-05 | 0.000524 ± 8.6e-05 | 0.000728 ± 8.4e-05 | 2370 ± 740 | 2.66e-05 ± 1.3e-05 | 7.98e-05 ± 1.7e-05
U47G U49G | 8.66e-05 ± 9.3e-06 |  |  | 8.15e-05 ± 1.2e-05 |  |  | 
C10U C50A | < 1e-05 |  |  | < 1e-05 |  | < 1e-05 | 
A53C U69G | 4.01e-05 ± 8e-06 | 5.28e-05 ± 1.3e-05 | 4.25e-05 ± 8.8e-06 |  |  |  | 
U56G C70G | 9.25e-05 ± 3.2e-06 | 8.21e-05 ± 8.7e-06 | 9.14e-05 ± 1.1e-05 | 9.54e-05 ± 9.8e-06 | 61.4 ± 13 | 4.14e-05 ± 9.7e-06 | 6.12e-05 ± 1e-05
A52G U69G | 5.99e-05 ± 2e-05 | 0.000113 ± 2.5e-05 | 7.25e-05 ± 1.2e-05 |  |  |  | 7.33e-05 ± 1.4e-05
G7A U31G | 2.76e-05 ± 2.9e-06 |  |  |  | 2490 ± 920 |  | 
